This is an account of results in article PMC12668182 (2025).

The test addresses N-His-ZB-CSB-Avi-Biotin (WT), full length (human, UniProt Q03468 1-1493, biotin on the C-terminal Avi tag). As to the kind of experiment: SPR. A general note: In SPR one partner is held on a chip, and binding of the other changes the refractive index at the surface.

Chain of N-His-ZB-CSB-Avi-Biotin (WT), full length (Q03468 whole entry): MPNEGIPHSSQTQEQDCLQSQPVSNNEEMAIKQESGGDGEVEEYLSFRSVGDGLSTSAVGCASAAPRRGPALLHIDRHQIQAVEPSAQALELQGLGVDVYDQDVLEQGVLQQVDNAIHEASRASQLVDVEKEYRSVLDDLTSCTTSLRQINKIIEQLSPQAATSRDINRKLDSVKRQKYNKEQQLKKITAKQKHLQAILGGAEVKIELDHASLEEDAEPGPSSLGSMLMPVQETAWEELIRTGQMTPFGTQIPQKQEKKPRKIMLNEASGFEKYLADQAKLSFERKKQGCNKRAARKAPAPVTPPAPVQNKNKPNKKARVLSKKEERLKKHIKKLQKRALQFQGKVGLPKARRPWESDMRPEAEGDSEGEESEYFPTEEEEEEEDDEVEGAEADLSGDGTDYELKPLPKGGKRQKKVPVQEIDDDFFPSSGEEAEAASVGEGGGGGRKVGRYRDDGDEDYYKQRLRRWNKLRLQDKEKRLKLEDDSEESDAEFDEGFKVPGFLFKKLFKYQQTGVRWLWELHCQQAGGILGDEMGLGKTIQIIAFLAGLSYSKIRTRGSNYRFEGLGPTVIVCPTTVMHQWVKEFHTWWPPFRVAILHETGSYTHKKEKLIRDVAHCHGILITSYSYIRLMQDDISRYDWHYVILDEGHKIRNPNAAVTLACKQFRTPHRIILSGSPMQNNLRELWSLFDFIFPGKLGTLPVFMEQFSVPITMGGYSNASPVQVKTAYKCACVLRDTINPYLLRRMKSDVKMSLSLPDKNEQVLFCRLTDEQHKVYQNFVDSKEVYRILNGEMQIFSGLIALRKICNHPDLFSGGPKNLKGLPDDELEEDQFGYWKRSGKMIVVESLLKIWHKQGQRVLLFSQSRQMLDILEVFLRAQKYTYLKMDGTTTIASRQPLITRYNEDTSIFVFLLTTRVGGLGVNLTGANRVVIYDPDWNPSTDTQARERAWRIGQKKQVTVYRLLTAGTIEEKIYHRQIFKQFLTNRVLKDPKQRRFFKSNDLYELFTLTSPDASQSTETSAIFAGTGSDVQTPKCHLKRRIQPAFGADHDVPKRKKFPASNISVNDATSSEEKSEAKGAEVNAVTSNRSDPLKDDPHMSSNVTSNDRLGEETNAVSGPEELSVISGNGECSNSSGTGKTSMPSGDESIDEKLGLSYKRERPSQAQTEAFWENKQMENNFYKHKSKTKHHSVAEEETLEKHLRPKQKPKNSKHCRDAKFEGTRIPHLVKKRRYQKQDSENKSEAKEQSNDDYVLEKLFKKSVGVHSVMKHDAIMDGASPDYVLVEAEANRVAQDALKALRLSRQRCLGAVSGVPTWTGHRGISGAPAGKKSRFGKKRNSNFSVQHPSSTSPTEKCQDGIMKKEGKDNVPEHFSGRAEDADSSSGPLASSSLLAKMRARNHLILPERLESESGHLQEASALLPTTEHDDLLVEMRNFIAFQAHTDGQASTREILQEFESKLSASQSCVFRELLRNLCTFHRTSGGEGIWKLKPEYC

B1: SNM1A (WT, a.a. 698-1040, untagged) (domain or fragment)
chain: KKTCPFYKKIPGTGFTVDAFQYGVVEGCTAYFLTHFHSDHYAGLSKHFTFPVYCSEITGNLLKNKLHVQEQYIHPLPLDTECIVNGVKVVLLDANHCPGAVMILFYLPNGTVILHTGDFRADPSMERSLLADQKVHMLYLDTTYCSPEYTFPSQQEVIRFAINTAFEAVTLNPHALVVCGTYSIGKEKVFLAIADVLGSKVGMSQEKYKTLQCLNIPEINSLITTDMCSSLVHLLPMMQINFKGLQSHLKKCGGKYNQILAFRPTGWTHSNKFTRIADVIPQTKGNISIYGIPYSEHSSYLEMKRFVQWLKPQKIIPTVNVGTWKSRSTMEKYFREWKLEAGY
As for B1, the dissociation constant (Kd) – broadly, the concentration at which binding is half-saturated – was 140 nM.
